Data taken from the supplement of paper PMC10567573.

B1: PDS5B (parent)
chain: IYKKYALQSAAGKDAAKQIAWIKD

Variants of: B1
Experiment: protein stability index of a GFP-peptide fusion (GPS, HEK-293T) (PSI 1-6); higher = more stable
Settings: c terminus: a fixed tail appended
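Note: lentivirally expressed fusions sorted by FACS into six bins by GFP to DsRed ratio, PSI derived from sequencing read proportions per bin multiplied by bin number.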

Protein stability index: each site, then its substitutions
A20: G 2.25, W 2.68, S 2.4, P 2.66, Q 2.29, L 1.89, C 2.18, E 2.66, I 2.31, M 2.02, R 1.84, N 2.68, F 1.95, V 2.08, Y 2.22, K 2.26, D 3.39, T 2.23, H 2.07
I19: H 3.34, P 3.11, L 1.81, N 3.59, W 1.93, Q 2.52, A 2.48, T 2.77, K 3.01, V 2.49, M 1.97, F 2.29, C 2.38, R 2.38, Y 1.99, G 3.46, D 3.79, S 2.6
Q18: W 2.18, P 2.37, T 1.6, R 2.24, V 2.07, S 2.58, Y 1.33
K23: L 3.36, Q 2.23, A 2.11, N 2.24, F 2.39, R 1.52, D 2.98, V 1.54, E 2.53, M 2, I 2.64, H 2.55, T 2.18, Y 2.44, S 2.98, W 2.62, P 2.36, G 2.68, C 1.47
D24: T 1.94, E 1.75, C 2.08, R 1.97, Y 1.14, L 2.02, I 1.76, F 2.15, N 2.24, M 1.59, A 2, W 1.66, P 2.79, H 2.14, Q 1.7, S 2.42, G 2.08, V 2.52, K 2.19
I22: A 3.14, C 2.75, T 3.31, G 2.8, S 3.09, F 2.29, H 3.12, D 3.78, R 3.43, M 2.14, N 3.26, V 3.21, P 3.1, L 2.33, K 3.21, E 4.49, Q 3.27, W 2.28, Y 2.52
W21: Y 2.42, V 2.72, I 2.88, M 3.2, P 3.57, G 2.92, E 2.91, N 3.83, S 3.19, A 3.22, H 2.75, D 3.05, Q 3.09, T 3.55, F 2.31, C 3.02, R 2.74, K 2.65, L 2.19
